Data: PMC12449476, “Transient ligand contacts of the intrinsically disordered N-terminus of neuropeptide Y2 receptor regulate arrestin-3 recruitment” (Nature Communications, 2025)
Residue numbers refer to the chain shown, from its start. pKd: −log10 of the molar value.

How the values were obtained:
Nluc-Y2R-eYFP E15-20K = target: T1, Nluc-Y2R-eYFP E15-20K (Homo sapiens, UniProt P49146, E15K/E16K/E20K); assay: NanoBRET equilibrium ligand binding
T1 construct: expressed in transfected cells; host or cells: membrane preparations of transiently transfected HEK293
T1 sequence (P49146 1-381 E15K/E16K/E20K): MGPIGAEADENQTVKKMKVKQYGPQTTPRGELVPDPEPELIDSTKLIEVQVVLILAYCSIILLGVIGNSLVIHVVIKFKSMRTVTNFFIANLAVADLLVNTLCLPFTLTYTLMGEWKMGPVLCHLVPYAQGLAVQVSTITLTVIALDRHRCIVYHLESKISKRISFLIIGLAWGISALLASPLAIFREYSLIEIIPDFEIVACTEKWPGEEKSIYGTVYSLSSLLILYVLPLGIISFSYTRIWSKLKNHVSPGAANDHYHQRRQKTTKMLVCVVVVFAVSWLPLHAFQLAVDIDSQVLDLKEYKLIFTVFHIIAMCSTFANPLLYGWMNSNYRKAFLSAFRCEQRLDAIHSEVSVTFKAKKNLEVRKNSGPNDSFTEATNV
Description: Briefly, for each data point, membranes containing 0.03 μg total protein were suspended in ice-cold BRET binding buffer (Hank’s balanced salt solution (HBSS) containing 20 mM HEPES (pH 7.4), 0.1% bovine serum albumin (BSA)). The assay was performed in solid black 96-WP with a total assay volume of 100 μL in technical duplicate or triplicate. […] To determine unspecific binding, 100 µM of the Y2R antagonist JNJ-31020028 (Selleck Europe) were added to each well. […] To start the dissociation measurement, the antagonist JNJ-31020028 was added to a final concentration of 50 µM (20 µL) using the built-in injector system of the plate reader and the BRET decay was measured for 20 min. Raw BRET was calculated as the ratio of fluorescence to luminescence, and the background value of the unspecific binding controls was subtracted to obtain the netBRET signal.

WT Nluc-Y2R-eYFP [1] = target: T2, WT Nluc-Y2R-eYFP (Homo sapiens, UniProt P49146); assay: NanoBRET equilibrium ligand binding
T2 construct: expressed in transfected cells; host or cells: membrane preparations of transiently transfected HEK293
T2 sequence (P49146 1-381): T1 sequence (P49146 1-381 E15K/E16K/E20K) with K15E, K16E, K20E
Description: Briefly, for each data point, membranes containing 0.03 μg total protein were suspended in ice-cold BRET binding buffer (Hank’s balanced salt solution (HBSS) containing 20 mM HEPES (pH 7.4), 0.1% bovine serum albumin (BSA)). The assay was performed in solid black 96-WP with a total assay volume of 100 μL in technical duplicate or triplicate. […] Raw BRET was calculated as the ratio of fluorescence to luminescence, and the background value of the unspecific binding controls was subtracted to obtain the netBRET signal.

WT Nluc-Y2R-eYFP [2] = target: T2, WT Nluc-Y2R-eYFP; conditions: cited from earlier work
Source text: In the following, we are addressing the Reviewer’s comments point‐by‐point. We quote statements from the Reviewer in bold face. We refer to changes made in the manuscript in yellow italics. Reviewer #1 (Remarks to the Author): In this work ...

K18-Tamra-NPY: tetramethylrhodamine(Tamra)-labeled peptide (K^18-Tamra-NPY)
BRETmax (Nluc-Y2R-eYFP E15-20K; HEK293 membranes, 10 min RT, mean, 95% CI 0.0243 to 0.0371): 0.0307 | Fraction high affinity (Nluc-Y2R-eYFP E15-20K; mean, 95% CI 0.0705 to 0.0862): 0.0783 | KD, high replicates (log) (Nluc-Y2R-eYFP E15-20K; replicate 1): -9.24 | KD, low replicates (log) (Nluc-Y2R-eYFP E15-20K; replicate 1): -6.58 | KD, high replicates (log) (Nluc-Y2R-eYFP E15-20K; replicate 2): -9.21 | KD, low replicates (log) (Nluc-Y2R-eYFP E15-20K; replicate 2): -6.52 | KD, high replicates (log) (Nluc-Y2R-eYFP E15-20K; replicate 3): -9.93 | KD, low replicates (log) (Nluc-Y2R-eYFP E15-20K; replicate 3): -6.58 | BRETmax (WT Nluc-Y2R-eYFP [1]; HEK293 membranes, 10 min RT, mean, 95% CI 0.0273 to 0.0311): 0.0292 | Fraction high affinity (WT Nluc-Y2R-eYFP [1]; mean, 95% CI 0.0352 to 0.0881): 0.0617 | KD, high replicates (log) (WT Nluc-Y2R-eYFP [1]; replicate 1): -9.88 | KD, low replicates (log) (WT Nluc-Y2R-eYFP [1]; replicate 1): -6.52 | KD, high replicates (log) (WT Nluc-Y2R-eYFP [1]; replicate 2): -9.40 | KD, low replicates (log) (WT Nluc-Y2R-eYFP [1]; replicate 2): -6.56 | KD, high replicates (log) (WT Nluc-Y2R-eYFP [1]; replicate 3): -9.43 | KD, low replicates (log) (WT Nluc-Y2R-eYFP [1]; replicate 3): -6.54 | KD,high (WT Nluc-Y2R-eYFP [2]; G-protein-dependent high-affinity state): subnanomolar | pKd (WT Nluc-Y2R-eYFP [2]; G-protein-independent low-affinity state): ~6.52
